Measurements published in PMC4600981.

Target: FvCamlp (calmodulin like EF hand protein of Flammulina velutipes), freed of the GST tag (Flammulina velutipes)
Test: SEC; Superdex 200, 25 mM Tris-HCl pH 7.5, 150 mM NaCl, 4 °C, flow 0.4 ml/min; in absence (5.0 mM EGTA) and presence of Ca2+ (5.0 mM); monomer to dimer

Q: With “FvCamlp (calmodulin like EF hand protein of Flammulina velutipes), freed of the GST tag (natural protein)” as the substance, how does the stoichiometry N read?
A: 2
